Key:
[1] = target: complex V (D. melanogaster), monomer (D. melanogaster (endogenous in fly mitochondria)); assay: native gel or EMSA; BN-PAGE (NativePAGE 3-12% Bis-Tris) of wild-type fly mitochondria solubilised with 4 mg digitonin per mg protein; Coomassie stain and in-gel activity of CI and CIV
[2] = target: complex V (D. melanogaster), monomer (D. melanogaster (endogenous in fly mitochondria)); assay: native gel or EMSA; complexome profiling: wild-type fly mitochondria solubilised with 6 g digitonin/g protein (50 mM NaCl, 5 mM 6-aminohexanoic acid, 1 mM EDTA, 50 mM imidazole/HCl pH 7.0), 4-16% gradient BN-PAGE, lane cut into 60 slices, LC-MS/MS, label-free quantification
[3] = target: mitochondrial respiratory chain complex IV (D. melanogaster) (D. melanogaster (endogenous in fly mitochondria)); assay: native gel or EMSA; BN-PAGE (NativePAGE 3-12% Bis-Tris) of mitochondria solubilised with 4 mg DDM per mg protein; Coomassie, in-gel activity, western blot of subunits; wild-type, Coa8 KO, Coa8 RNAi, strong Bcs1 RNAi and Ndufs4 RNAi flies or larvae with their controls
[4] = target: mitochondrial respiratory chain complex IV (D. melanogaster) (D. melanogaster (endogenous in fly mitochondria)); assay: native gel or EMSA; BN-PAGE (NativePAGE 3-12% Bis-Tris) of wild-type fly mitochondria solubilised with 4 mg digitonin per mg protein; Coomassie stain and in-gel activity of CI and CIV

stoichiometry N [1]	stoichiometry N [2]	stoichiometry N [3]	stoichiometry N [4]	Substance
2	2			complex V (D. melanogaster), monomer
		2	2	mitochondrial respiratory chain complex IV (D. melanogaster)

— paper PMC10569793
